# Measurements reported in US20260242419A1, “A CYCLIC PEPTIDE FOR TRAPPING INTERLEUKIN-1 BETA” (Merck Sharp & Dohme LLC, priority 2023, published 2026).
# Starred links: 1 amine or outer side, 2 acyl side, 3 side chain; linkers in the order of their positions; H or OH if unused. Non-standard residues stand in square brackets, D forms with d. Primed or numbered codes have the meaning given here. F4bcpA = 3-[4-[(2S)-2-amino-2-carboxy-ethyl]phenyl]bicyclo[1.1.1]pentane-1-carboxylic acid, O=C([C@H](Cc1ccc(C23CC(C(=O)[*:3])(C2)C3)cc1)N[*:1])[*:2]; 3Pal4CO2H = 5-[(2S)-2-amino-2-carboxy-ethyl]pyridine-2-carboxylic acid, O=C([C@H](Cc1ccc(C(=O)[*:3])nc1)N[*:1])[*:2]; Ala(piperidin-4-yl) = O=C([C@H](CC1CCN([*:3])CC1)N[*:1])[*:2]; Trp(βS-Me,4-F) = C[C@@H](c1c[nH]c2cccc(F)c12)[C@H](N)C(=O)O; Bip(4'-COOH) = N[C@@H](Cc1ccc(-c2ccc(C(=O)O)cc2)cc1)C(=O)O; Ala(1-bicyclo(1.1.1)pentyl) = N[C@@H](CC12CC(C1)C2)C(=O)O; dPro(4R-Bzl(4-F)) = O=C(O)[C@H]1C[C@@H](Cc2ccc(F)cc2)CN1; Ala(morpholin-4-yl) = N[C@@H](CN1CCOCC1)C(=O)O; Ala(piperazin-1-yl) = N[C@@H](CN1CCNCC1)C(=O)O; Ala(pyrimidin-5-yl) = N[C@@H](Cc1cncnc1)C(=O)O; Phe(4-COOH) = N[C@@H](Cc1ccc(C(=O)O)cc1)C(=O)O; Pro(cis-4-F) = O=C(O)[C@@H]1C[C@H](F)CN1; cisHyp = O=C(O)[C@@H]1C[C@H](O)CN1; d(αMeD) = C[C@@](N)(CC(=O)O)C(=O)O; aIle = CC[C@@H](C)[C@H](N)C(=O)O; 4Pal = N[C@@H](Cc1ccncc1)C(=O)O; αMeK = C[C@](N)(CCCCN)C(=O)O; dαMeDab′ = not defined here; hSer = N[C@@H](CCO)C(=O)O; αMeS = C[C@](N)(CO)C(=O)O; Dab = NCC[C@H](N)C(=O)O; Aib = CC(C)(N)C(=O)O; Sar = CNCC(=O)O
# B1: SEQ ID NO: 97 (peptide)
# peptide: cyclo([Bip(4'-COOH)][Ala(1-bicyclo(1.1.1)pentyl)][Phe(4-COOH)]G[Pro(cis-4-F)][Trp(βS-Me,4-F)][αMeS]SW[Aib]SQ[Dab]G[dPro(4R-Bzl(4-F))])
# SMILES: C[C@@H](c1c[nH]c2cccc(F)c12)[C@@H]1NC(=O)[C@@H]2C[C@H](F)CN2C(=O)CNC(=O)[C@H](Cc2ccc(C(=O)O)cc2)NC(=O)[C@H](CC23CC(C2)C3)NC(=O)[C@H](Cc2ccc(-c3ccc(C(=O)O)cc3)cc2)NC(=O)[C@H]2C[C@@H](Cc3ccc(F)cc3)CN2C(=O)CNC(=O)[C@H](CCN)NC(=O)[C@H](CCC(N)=O)NC(=O)[C@H](CO)NC(=O)C(C)(C)NC(=O)[C@H](Cc2c[nH]c3ccccc23)NC(=O)[C@H](CO)NC(=O)[C@](C)(CO)NC1=O
# B2: SEQ ID NO: 99 (peptide)
# peptide: cyclo([F4bcpA][Ala(1-bicyclo(1.1.1)pentyl)][Phe(4-COOH)]G[Pro(cis-4-F)][Trp(βS-Me,4-F)][Aib]EW[Aib][Ala(pyrimidin-5-yl)]Q[Dab]G[dPro(4R-Bzl(4-F))])
# SMILES: C[C@@H](c1c[nH]c2cccc(F)c12)[C@@H]1NC(=O)[C@@H]2C[C@H](F)CN2C(=O)CNC(=O)[C@H](Cc2ccc(C(=O)O)cc2)NC(=O)[C@H](CC23CC(C2)C3)NC(=O)[C@H](Cc2ccc(C34CC(C(=O)O)(C3)C4)cc2)NC(=O)[C@H]2C[C@@H](Cc3ccc(F)cc3)CN2C(=O)CNC(=O)[C@H](CCN)NC(=O)[C@H](CCC(N)=O)NC(=O)[C@H](Cc2cncnc2)NC(=O)C(C)(C)NC(=O)[C@H](Cc2c[nH]c3ccccc23)NC(=O)[C@H](CCC(=O)O)NC(=O)C(C)(C)NC1=O
# B3: SEQ ID NO: 98 (peptide)
# peptide: cyclo([Bip(4'-COOH)][Ala(1-bicyclo(1.1.1)pentyl)][3Pal4CO2H]G[Pro(cis-4-F)][Trp(βS-Me,4-F)][Aib]EW[Aib][Ala(pyrimidin-5-yl)]Q[Dab]G[dPro(4R-Bzl(4-F))])
# SMILES: C[C@@H](c1c[nH]c2cccc(F)c12)[C@@H]1NC(=O)[C@@H]2C[C@H](F)CN2C(=O)CNC(=O)[C@H](Cc2ccc(C(=O)O)nc2)NC(=O)[C@H](CC23CC(C2)C3)NC(=O)[C@H](Cc2ccc(-c3ccc(C(=O)O)cc3)cc2)NC(=O)[C@H]2C[C@@H](Cc3ccc(F)cc3)CN2C(=O)CNC(=O)[C@H](CCN)NC(=O)[C@H](CCC(N)=O)NC(=O)[C@H](Cc2cncnc2)NC(=O)C(C)(C)NC(=O)[C@H](Cc2c[nH]c3ccccc23)NC(=O)[C@H](CCC(=O)O)NC(=O)C(C)(C)NC1=O
# B4: SEQ ID NO: 133 (peptide)
# peptide: cyclo([Bip(4'-COOH)][4Pal][Phe(4-COOH)]G[Pro(cis-4-F)][Trp(βS-Me,4-F)][Aib][hSer]W[αMeK][Ala(pyrimidin-5-yl)]Q[Dab]G[dPro(4R-Bzl(4-F))])
# modifications: ring closure inferred; not fully specified (bridges); printed as Bip4CO2H-4Pal-Phe4COOH-G-Proc4F-SbMeW4F-Aib-hS-W-aMeK-PyrimAla-Q-Dab-G-dProc4Bn4F
# B5: SEQ ID NO: 130 (peptide)
# peptide: cyclo([Bip(4'-COOH)][4Pal][Phe(4-COOH)]G[Pro(cis-4-F)][Trp(βS-Me,4-F)][Aib]SW[αMeDab][Ala(pyrimidin-5-yl)]Q[Dab]G[dPro(4R-Bzl(4-F))])
# modifications: ring closure inferred; not fully specified (bridges); printed as Bip4CO2H-4Pal-Phe4COOH-G-Proc4F-SbMeW4F-Aib-S-W-aMeDab-PyrimAla-Q-Dab-G-dProc4Bn4F
# B6: SEQ ID NO: 134 (peptide)
# peptide: cyclo([Bip(4'-COOH)][4Pal][Phe(4-COOH)]G[Pro(cis-4-F)][Trp(βS-Me,4-F)][Aib]AW[αMeK][Ala(pyrimidin-5-yl)]Q[Dab]G[dPro(4R-Bzl(4-F))])
# modifications: ring closure inferred; not fully specified (bridges); printed as Bip4CO2H-4Pal-Phe4COOH-G-Proc4F-SbMeW4F-Aib-A-W-aMeK-PyrimAla-Q-Dab-G-dProc4Bn4F
# B7: SEQ ID NO: 128 (peptide)
# peptide: cyclo([Bip(4'-COOH)][4Pal][Phe(4-COOH)]G[Pro(cis-4-F)][Trp(βS-Me,4-F)][Aib]SW[d(αMeD)][Ala(pyrimidin-5-yl)]Q[Dab]G[dPro(4R-Bzl(4-F))])
# modifications: ring closure inferred; not fully specified (bridges); printed as Bip4CO2H-4Pal-Phe4COOH-G-Proc4F-SbMeW4F-Aib-S-W-daMeD-PyrimAla-Q-Dab-G-dProc4Bn4F
# B8: SEQ ID NO: 129 (peptide)
# peptide: cyclo([Bip(4'-COOH)][4Pal][Phe(4-COOH)]G[Pro(cis-4-F)][Trp(βS-Me,4-F)][αMeDab]SW[Aib][Ala(pyrimidin-5-yl)]Q[Dab]G[dPro(4R-Bzl(4-F))])
# modifications: ring closure inferred; not fully specified (bridges); printed as Bip4CO2H-4Pal-Phe4COOH-G-Proc4F-SbMeW4F-aMeDab-S-W-Aib-PyrimAla-Q-Dab-G-dProc4Bn4F
# B9: SEQ ID NO: 135 (peptide)
# peptide: cyclo([Bip(4'-COOH)][4Pal][Phe(4-COOH)]G[Pro(cis-4-F)][Trp(βS-Me,4-F)][Aib]VW[αMeK][Ala(pyrimidin-5-yl)]Q[Dab]G[dPro(4R-Bzl(4-F))])
# modifications: ring closure inferred; not fully specified (bridges); printed as Bip4CO2H-4Pal-Phe4COOH-G-Proc4F-SbMeW4F-Aib-V-W-aMeK-PyrimAla-Q-Dab-G-dProc4Bn4F
# B10: SEQ ID NO: 136 (peptide)
# peptide: cyclo([Bip(4'-COOH)][4Pal][Phe(4-COOH)]G[Pro(cis-4-F)][Trp(βS-Me,4-F)][Aib][aIle]W[αMeK][Ala(pyrimidin-5-yl)]Q[Dab]G[dPro(4R-Bzl(4-F))])
# modifications: ring closure inferred; not fully specified (bridges); printed as Bip4CO2H-4Pal-Phe4COOH-G-Proc4F-SbMeW4F-Aib-alI-W-aMeK-PyrimAla-Q-Dab-G-dProc4Bn4F
# B11: SEQ ID NO: 131 (peptide)
# peptide: cyclo([Bip(4'-COOH)][4Pal][Phe(4-COOH)]G[Pro(cis-4-F)][Trp(βS-Me,4-F)][dαMeDab′]SW[Aib][Ala(pyrimidin-5-yl)]Q[Dab]G[dPro(4R-Bzl(4-F))])
# modifications: ring closure inferred; not fully specified (bridges); printed as Bip4CO2H-4Pal-Phe4COOH-G-Proc4F-SbMeW4F-daMeDab-S-W-Aib-PyrimAla-Q-Dab-G-dProc4Bn4F
# B12: SEQ ID NO: 127 (peptide)
# peptide: cyclo([Bip(4'-COOH)][4Pal][Phe(4-COOH)]G[cisHyp][Trp(βS-Me,4-F)][Aib]SW[Aib][Ala(pyrimidin-5-yl)]Q[Dab]G[dPro(4R-Bzl(4-F))])
# modifications: ring closure inferred; not fully specified (bridges); printed as Bip4CO2H-4Pal-Phe4COOH-G-Proc4OH-SbMeW4F-Aib-S-W-Aib-PyrimAla-Q-Dab-G-dProc4Bn4F
# B13: SEQ ID NO: 132 (peptide)
# peptide: cyclo([Bip(4'-COOH)][4Pal][Phe(4-COOH)]G[Pro(cis-4-F)][Trp(βS-Me,4-F)][Aib]EW[αMeK][Ala(pyrimidin-5-yl)]Q[Dab][Sar][dPro(4R-Bzl(4-F))])
# modifications: ring closure inferred; not fully specified (bridges); printed as Bip4CO2H-4Pal-Phe4COOH-G-Proc4F-SbMeW4F-Aib-E-W-aMeK-PyrimAla-Q-Dab-Sar-dProc4Bn4F
# Target: Recombinant human IL-1β (BioLegend 579404) (human, UniProt P01584 117-269)
# Experiment: cell-based or functional assay
row,MRC5 IC50,Binder
1,0.036 nM,B1
2,0.031 nM,B2
3,0.058 nM,B3

# Target: Recombinant human IL-1β (BioLegend 579404) (human, UniProt P01584 117-269)
# Experiment: cell-based or functional assay
# Remark: another data set of the same source
row,MRC5 IC50,Binder
1,0.021 nM,B4
2,0.019 nM,"cyclo([Bip(4'-COOH)][4Pal][Phe(4-COOH)]G[Pro(cis-4-F)][Trp(βS-Me,4-F)][Aib]EW[Aib][Ala(piperazin-1-yl)]QSG[dPro(4R-Bzl(4-F))]) (ring closure inferred) [SEQ ID NO: 122]"
3,0.029 nM,"cyclo([Bip(4'-COOH)][4Pal][Phe(4-COOH)]G[Pro(cis-4-F)][Trp(βS-Me,4-F)][Aib]EW[Aib][Ala(piperidin-4-yl)]QSG[dPro(4R-Bzl(4-F))]) (ring closure inferred) [SEQ ID NO: 121]"
4,0.039 nM,B5
5,0.041 nM,"cyclo([Bip(4'-COOH)][4Pal][Phe(4-COOH)]G[Pro(cis-4-F)][Trp(βS-Me,4-F)][Aib]EW[Aib][Ala(morpholin-4-yl)]QSG[dPro(4R-Bzl(4-F))]) (ring closure inferred) [SEQ ID NO: 125]"
6,0.017 nM,"cyclo([Bip(4'-COOH)][4Pal][Phe(4-COOH)]G[Pro(cis-4-F)][Trp(βS-Me,4-F)][Aib]EW[Aib][Ala(morpholin-4-yl)]Q[Dab]G[dPro(4R-Bzl(4-F))]) (ring closure inferred) [SEQ ID NO: 123]"
7,0.021 nM,B6
8,0.009 nM,B7
9,0.019 nM,B8
10,0.035 nM,B9
11,0.027 nM,B10
12,0.022 nM,"cyclo([Bip(4'-COOH)][4Pal][Phe(4-COOH)]G[Pro(cis-4-F)][Trp(βS-Me,4-F)][Aib]EW[Aib][Ala(morpholin-4-yl)]Q[Dab]G[dPro(4R-Bzl(4-F))]) (ring closure inferred) [SEQ ID NO: 126]"
13,0.018 nM,"cyclo([Bip(4'-COOH)][4Pal][Phe(4-COOH)]G[Pro(cis-4-F)][Trp(βS-Me,4-F)][Aib]EW[Aib][Ala(morpholin-4-yl)]QSG[dPro(4R-Bzl(4-F))]) (ring closure inferred) [SEQ ID NO: 124]"
14,0.019 nM,B11
15,0.013 nM,B12
16,0.015 nM,B13
